The source of these data is US20110300156A1 (Genmab, published 2011).

Where only a bound is given, the exact number is not on record here.

Assay [1] has as its target T1, murine tissue factor (TF) on transfected HEK293F cells (murine, UniProt P20352 29-294).
T1 construct: whole, on cells; also called murine TF; TFmm
T1 sequence (looked up): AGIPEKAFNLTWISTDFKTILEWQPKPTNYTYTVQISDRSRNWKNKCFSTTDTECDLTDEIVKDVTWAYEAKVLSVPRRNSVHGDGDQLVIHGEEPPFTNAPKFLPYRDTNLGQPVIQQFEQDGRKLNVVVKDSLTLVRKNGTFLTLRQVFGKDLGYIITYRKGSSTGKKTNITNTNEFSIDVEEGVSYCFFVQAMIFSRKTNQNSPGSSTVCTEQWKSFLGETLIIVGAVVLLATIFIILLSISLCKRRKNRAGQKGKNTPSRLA
The assay can be described thus: FACS on transfected HEK293F cells, 30 µg/mL antibody [panel O].

Assay [2] deals with T2, TFECDHis (extracellular domain of tissue factor, amino acid 1-251, with C-terminal His tag) (human, UniProt P13726 33-251).
T2 construct: range 1-251; The stated range 1-251 starts at residue 1 of NP-001984; also called extracellular domain of TF
The assay can be described thus: competition ELISA, inhibition of FVIIa (100 nM) binding to coated TFECDHis. The procedure: ELISA plates were coated overnight with TFECDHis (0.5 μg/mL, 100 μL per well). Plates were emptied, blocked with PBS containing 2% (v/v) chicken serum (1 hour, RT), and emptied again. […] Plates were washed and incubated with swine-anti-rabbit IgG-HRP antibody (1:2,500; DAKO). After washing, the immune complexes were visualized using ABTS as a substrate.
(In general: An ELISA detects its analyte on a solid surface through an enzyme-linked reagent.)

For assay [3], the target named is T3, human tissue factor (TF), membrane-bound on cells (human, UniProt P13726 33-295).
T3 construct: whole, on cells; also called cellular TF
The assay can be described thus: FACS, MDA-MB-231 cells. The method, then: (§1) Cells were resuspended in PBS (2×10⁶ cells/ml), put in 96-well V-bottom plates (50 μl/well). 50 μl of serially diluted HuMab in FACS buffer (PBS supplemented with 0.1% BSA and 0.02% Na-azide) was added to the cells and incubated for 30 minutes on ice. After washing three times with FACS buffer, 50 μl of phycoerythrin (PE)-conjugated goat anti-human IgGFc (Jackson ImmunoResearch), diluted 1:100 in FACS buffer, was added. After 30 minutes on ice (in the dark), cells were washed three times, and specific binding of the HuMabs was detected by flow cytometry on a FACSCalibur (BD Biosciences). HuMab-KLH was used as a negative control. Mouse anti-TF followed by PE-conjugated anti-mouse IgGFc was used as positive control. Binding curves were analyzed using non-linear regression (sigmoidal dose-response with variable slope) using GraphPad Prism V4.03 software (GraphPad Software, San Diego, Calif., USA).
Background: In flow cytometry, cells or beads pass a laser one at a time.

The target in assay [4] is T3, human tissue factor (TF), …. The assay can be described thus: FACS, Bx-PC3 cells. The method, then:
as §1

For assay [5] the target is unchanged. The assay can be described thus: FACS, Bx-PC3 cells, 30 µg/mL. The method, then:
as §1

The target is the same in assay [6]. The assay can be described thus: cell-based or functional assay.
The target in assay [7] is T2, TFECDHis (extracellular domain of …). The assay can be described thus: ELISA, coated TFECDHis, mean of 3. The method, then: The specificity of the obtained anti-TF HuMabs was evaluated by ELISA. ELISA plates (Microlon; Greiner Bio-One) were coated overnight at +4° C. with 0.5 μg/mL of TFECDHis in PBS, pH 7.4. Coated ELISA plates were emptied and blocked for one hour at room temperature with 2% (v/v) chicken serum (Gibco, Paisley, Scotland) in PBS and washed with PBS containing 0.05% Tween 20 (PBST). Subsequently, HuMabs, serially diluted in PBSTC (PBS supplemented with 2% (v/v) chicken serum and 0.05% (v/v) Tween-20), were incubated for 1 hr at RT under shaking conditions (300 rpm). Bound HuMabs were detected using HRP-conjugated goat-anti-human IgG antibodies (Jackson ImmunoResearch) diluted 1:5,000 in PBSTC, which were incubated for 1 hr at RT under shaking conditions (300 rpm). […] HuMab-KLH (a human monoclonal antibody against KLH (keyhole limpet haemocyanin)), was used as a negative control. Mouse anti-human TF (ERL) was used as positive control (HRP labeled anti-mouse IgG as conjugate). Binding curves were analyzed using non-linear regression (sigmoidal dose-response with variable slope) using GraphPad Prism V4.03 software.

Assay [8] addresses T3, human tissue factor (TF), …. The assay can be described thus: FACS, A431 cells. The procedure: as §1
The target of assay [9] is T1, murine tissue factor (TF) on …. The assay can be described thus: FACS on transfected HEK293F cells, 30 µg/mL antibody [panel L].
In assay [10] the target is T3, human tissue factor (TF), …. The assay can be described thus: FACS, A431 cells, 30 µg/mL. The method, then:
as §1

The target in assay [11] is T4, TF (Innovin) (UniProt P13726 33-295, limits assumed). The assay can be described thus: cell-based or functional assay.
Assay [12] concerns the target T3, human tissue factor (TF), …. The assay can be described thus: FACS, MDA-MB-231 cells, 30 µg/mL. The method, then:
as §1

For assay [13] the target is unchanged. The assay can be described thus: FACS, TF transfected CHO cells (S1015-TF), 7.5 µg/mL. The method, then: as §1
Assay [14] shares this target. The assay can be described thus: cell-based or functional assay. The source holds these as a separate data set.
For assay [15] the target is unchanged. The assay can be described thus: cell-based or functional assay. This is another data set of the same source.
The target is the same in assay [16]. The assay can be described thus: FACS, TF transfected CHO cells (S1015-TF). The procedure: as §1
Assay [17] concerns the target T4, TF (Innovin). The assay can be described thus: cell-based or functional assay. This is another data set of the same source.
Assay [18] concerns the target T3, human tissue factor (TF), …. The assay can be described thus: FACS on MDA-MB-231 cells (~900.000 TF molecules/cell) [panel MDA-MB-231 cells]. The method, then:
as §1
(§2) Binding of anti-TF HuMabs to membrane-bound TF on cell lines expressing different levels of TF was determined by FACS analysis, essentially as described supra. Mouse anti-TF antibody followed by PE-conjugated anti-mouse IgGFc was used as a positive control. Fluorescence was measured on a FACSCantoII. Binding curves were analyzed essentially as described supra, using GraphPad Prism 5 software. The amount of TF molecules on cell lines was determined by Qifi kit (Dako, Glostrup, Denmark), according to the manufacturer's instructions.

In assay [19] the target is T1, murine tissue factor (TF) on …. The assay can be described thus: FACS on transfected HEK293F cells, 30 µg/mL antibody [panel N].
For assay [20], the target named is T2, TFECDHis (extracellular domain of …). The assay can be described thus: SPR avidity format: TFECDHis immobilized, bivalent HuMab as analyte (printed as avidity nM). The procedure:
Antibody binding to TF was analyzed by surface plasmon resonance in a BIAcore 3000 (GE Healthcare). TFECDHis was used for the analysis. HuMab antibodies (500 resonance units) were immobilized on the CM-5 sensor chip according to the procedure recommended by the manufacturer. Briefly, after surface activation by EDC and NHS HuMab antibody was injected over the activated CM-5 surface in 10 mM sodium-acetate, pH ranging from 4.0 to 5.5 at 5 μl/min. followed by 1 M Ethanolamine for deactivation. Concentration series of TFECDHis in HBS-EP buffer were injected over the immobilized antibodies at a flow rate of 30 μl/min for 180 sec. Regeneration of the HuMab surface was performed by injection of 10 mM Glycine-HCl pH 2.0 or 10 mM sodium acetate pH 3.0. Kinetic analysis was performed using double reference subtraction and model 1:1 (langmuir) binding analysis.
TF (TFECDHis) binding to TF-specific HuMabs was determined essentially as described above, with TFECDHis being immobilized on the CM-5 sensor chip (300 resonance units), and concentration series of Humab antibodies used for kinetic analysis. Kinetic analysis was performed using double reference subtraction and model 1:1 (langmuir) binding analysis.

Assay [21] addresses T3, human tissue factor (TF), …. The assay can be described thus: FACS on AsPC-1 cells (~175.000 TF molecules/cell) [panel AsPC-1 cells]. The procedure: as §1, §2

B1: anti-TF HuMab 114 (antibody, V domains shown)
VH: QVQLVESGGGVVQPGRSLRLSCVASGFTVSNDGMHWVRQAPGKGLEWVALIWYDGVNKNYADSVKGRFTISRDKSKNTLYLQMNSLRAEDTAVYYCARRPGTFYGLDVWGQGTTVTVSS
VL: not shown
notes: Human monoclonal antibody from HuMab mice
Turning to B1, the binding result in assay [1] was “no binding (tested: 30 µg/mL)”. This molecule yielded a max inhibition in assay [2] of 90%.

B2: anti-TF HuMab 101 (antibody, V domains shown)
VH: EVQLLESGGGLVQPGGSLRLSCAASGFTFSNYAMSWVRQAPAKGLDWVSGISGSGVTTYYADSVKGRFTISRDNSKDTLYLQMNSLRAEDTAVYFCAKTPWGYYFDYWGQGILVAVSS
VL: DIQMTQSPSSLSASVGDRVTITCRASQGISSWLAWYQQKPEKAPKSLIYAASSLQSGVPSRFSGSGSGTDFTLTISSLQPEDFATYYCQQYNSYPLYTFGQGTKLEIK
notes: as for B1
For orientation: EC50 means the concentration at which the effect is half-maximal. Consider B2, for which the concentration giving a half-maximal response (EC50) came to 850 pM in [3]; 2250 pM in assay [4]; 280 pM in [7]; 3160 pM in [8]; 1770 pM in assay [16]. In addition, the “Max MFI” value was found to be 1220 in [5], 2930 in assay [10], 2070 in [12] and 5860 in [13]. Further, the “IC50, inhibition of FVIIa induced IL-8 release (MDA-MB-231)” value in [6] is 22700 pM. The “max inhibition of FVIIa induced IL-8 release (MDA-MB-231)” value in assay [6] worked out at 74.9%. The binding result in assay [9] is listed as “no binding (tested: 30 µg/mL)”. Besides, in the assay with TF (Innovin) [11], the “IC50, inhibition of blood coagulation (TF induced clotting time)” value stood at 700 pM. Further, the “% max inhibition of FVIIa induced ERK phosphorylation (A431)” value in assay [14] came out at 57%. For the same molecule, in assay [14], the “IC50, inhibition of FVIIa induced ERK phosphorylation (A431)” value came out at 1050 pM. Also, in [15], the “EC50 of ADCC, A431 cells” value worked out at 10 pM. In assay [15], the “EC50 of ADCC, Bx-PC3 cells” value is 90 pM. The “EC50 of ADCC, MDA-MB-231 cells” value in [15] is 100 pM.

B3: anti-TF HuMab 111 (antibody, V domains shown)
VH: QVQLVESGGGVVQPGRSLRLSCAGSGFTFNRYAMYWVRQAPGKGLDWVAVISNDGINKYYADSVKGRFTISRDNSKNTLYLQMNSLRAEDTAVYYCARDHTMVRGAFDYWGQGTLVTVSS
VL: EIVLTQSPATLSLSPGERATLSCRASQSVSSYLAWYQQKPGQAPRLLIYDASNRATGIPARFSGSGSGTDFTLTISSLEPEDFAVYYCQQRSNWPLTFGGGTKVEIK
notes: as for B1
As a reminder, the EC50 (read off the curve) is the concentration needed to bring the measured effect to its halfway point. On to B3, for which the EC50 in assay [3] is 1030 pM; in assay [4], 1830 pM; in assay [8], 2880 pM; in [16], 550 pM. In addition, the “Max MFI” value in [5] was 1130; in assay [10], 3040; in [12], 1770; in [13], 5350. For the same molecule, the “% max inhibition of FXa generation” value with TF (Innovin) [17] worked out at 7%. The “IC50, inhibition of FXa generation” value in the assay with TF (Innovin) [17] came out at 70 pM. Also, the “IC50, inhibition of FVIIa induced IL-8 release (MDA-MB-231)” value in assay [6] was more than 200000 pM. Moreover, the “max inhibition of FVIIa induced IL-8 release (MDA-MB-231)” value in [6] is 40.1%. Also, the max inhibition in assay [2] worked out at 79%. Besides, the “EC50 (read off the curve)” value is approximately 0.06 µg/mL in assay [18] and approximately 0.1 µg/mL in [21]. The binding result in assay [19] is “no binding (tested: 30 µg/mL)”. For the same molecule, the Kd in assay [20] was determined as 110 pM. In assay [14], the “% max inhibition of FVIIa induced ERK phosphorylation (A431)” value was determined as 52%. Moreover, the “IC50, inhibition of FVIIa induced ERK phosphorylation (A431)” value in [14] was more than 66600 pM. The “EC50 of ADCC, A431 cells” value in [15] came to 1560 pM. Moreover, in assay [15], the “EC50 of ADCC, MDA-MB-231 cells” value worked out at 840 pM.
